Assay results as given in US20170240883A1, “CYCLIC PEPTIDES EXPRESSED BY A GENETIC PACKAGE” (Miti Biosystems GmbH, priority 2014, published 2017).

T1: substrate peptide NH2-KPTTVKPPSDFEEWTINVC-COOH
T1 chain: KPTTVKPPSDFEEWTINVC


Tests used:
[1] = target: T2, Human Plasma Kallikrein (Homo sapiens, UniProt P03952); assay: Phage selection of ProcM-modified SynLib1 library on biotinylated kallikrein (output titre); type: binding; details: 24 clones from R3 6.25 nM kallikrein output
T2 construct: purchased Molecular Innovations, Inc, USA
Description: Human Plasma Kallikrein (Molecular Innovations, Inc, USA) at 1.15 mg/ml (13 μM) solution in 4 mM acetate, 150 mM NaCl, pH 5.3 was biotinylated using NHS-PEG4-Biotin from the EZ-link micro-PEO4-biotinylation kit (Pierce Biotechnology, USA). 680 μl of water was added to the contents of the pre-weighed vial of biotinylation reagent to make a 5 mM solution. 1 μl of this solution was added to 100 μl of the kallikrein solution. This was incubated at RT for 1 hour prior to the separation of the biotinylated protein from the unreacted biotin, using a 2 ml Spin Desalting column (Pierce Biotechnology, USA). The volume of the kallikrein was made up to 350 μl with PBS (Formedium Ltd, UK) and was loaded onto the spin column which had been equilibrated with PBS (as per the manufacturer's instructions). When this solution had been absorbed into the column matrix, a further 50 μl of PBS was added on top and the column was spun in a centrifuge at 1000 g for 2 min. 395 μl of solution was collected, making the concentration of the biotinylated kallikrein about 3.25 μM.
150 μl of stock SynLib1 library (2.5e11 phage per μl) was added to 1850 μl of TE buffer, 2 μl 1 M TCEP (Melford Biolaboratories Ltd, UK) and incubated at RT for 20 minutes to reduce the peptides on the phage. […]

[2] = target: T1, substrate peptide …

T2 sequence (P03952 20-638): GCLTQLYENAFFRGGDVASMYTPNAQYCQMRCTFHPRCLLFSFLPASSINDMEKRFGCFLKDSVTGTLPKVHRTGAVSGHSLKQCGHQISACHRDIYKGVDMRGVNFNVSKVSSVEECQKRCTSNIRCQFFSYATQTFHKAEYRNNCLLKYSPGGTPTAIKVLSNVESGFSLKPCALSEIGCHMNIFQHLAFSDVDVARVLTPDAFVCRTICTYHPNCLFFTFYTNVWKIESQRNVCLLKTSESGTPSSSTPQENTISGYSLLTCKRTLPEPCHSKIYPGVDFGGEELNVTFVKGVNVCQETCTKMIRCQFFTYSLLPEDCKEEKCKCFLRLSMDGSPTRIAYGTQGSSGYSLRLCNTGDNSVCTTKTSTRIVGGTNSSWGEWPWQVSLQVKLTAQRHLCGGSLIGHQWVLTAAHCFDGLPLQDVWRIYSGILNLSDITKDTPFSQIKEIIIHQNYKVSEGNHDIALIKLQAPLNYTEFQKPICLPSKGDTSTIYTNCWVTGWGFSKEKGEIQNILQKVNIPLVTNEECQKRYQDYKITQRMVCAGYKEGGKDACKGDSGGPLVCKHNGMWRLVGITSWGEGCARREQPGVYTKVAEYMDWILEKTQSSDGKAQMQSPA

Molecule	share of the clones that were sequenced [1] [%]	dehydration of the peptide, LC-ESI mass spectrometry [2]
AACKGPSPTPNNC [clone 24]	12.5	–
NelfMvdDGS10 (N-terminal MvdE leader - 10-residue linker - MvdD enzyme-leader fusion) (protein) MSKNVKVSAPKAVPFFARFLAEQAVEANNSNSAPSASGSGSGSGSTSGSGSGSAMTVLIFTFSNDNESIPLVVKAIEAKGEKAFRFDTDRFPTEVKLDIYSGDFEGGIVTDGEHKLDLSEVSSVWYRRMRYGAKLPDSMDQQFREASLKECRLTVRGLIASLPGFHFDPMINVDRANNKQLQLQIARQLGLLTPRTLTSNNPEAVKQFAQDCKEQGIVTKMLSQFAIYGENKEENVVFTSPVTDDDLDNLEGLSFCPMTFQENVPKALELRTIIVGKQVFTAAINSQQLDGATYDWRKEGRALHEKWQAYNLPEDIEKKLLQLTAYFGLNYGAIDIIVTPDGRHVFLEINPVGEFFWLELFAPYFPISQAIAEILLTPTNQKPF	–	one portion of the used peptide P2 was found showing triple dehydration with a m/z value of 1069.022
Celf5ProcM (ProcM - 5-residue linker - C-terminal ProcA4.3 leader enzyme-leader fusion) (protein) MSEEQLKAFIAKVQADTSLQEQLKAEGADVVAIAKAAGFTITTEDLNSHRQNLTDDELEGVAGGSASGSGSGSAMESPSSWKTSWLAAIAPDEPHKFDRRLEWDELSEENFFAALNSEPASLEEDDPCFEEALQDALEALKAAWDLPLLPVDNNLNRPFVDVWWPIRCHSAESLRQSFVSDSAGLADEIFDQLADSLLDRLCALGDQVLWEAFNKERTPGTMLLAHLGAAGDGSGPPVREHYERFIQSHRRNGLAPLLKEFPVLGRLIGTVLSLWFQGSVEMLQRICADRTVLQQCFAIPCGHHLKTVKQGLSDPHRGGRAVAVLEFADPNSTANSSMHVVYKPKDMAVDAAYQATLADLNTHSDLSPLRTLAIHNGNGYGYMEHVVHHLCANDKELTNFYFNAGRLTALLHLLGCTDCHHENLIACGDQLLLIDTETLLEADLPDHISDASSTTAQPKPSSLQKQFQRSVLRSGLLPQWMFLGESKLAIDISALGMSPPNKPERIALGWLGFNSDGMMPGRVSQPVEIPTSLPVGIGEVNPFDRFLEDFCDGFSMQSEALIKLRNRWLDVNGVLAHFAGLPRRIVLRATRVYFTIQRQQLEPTALRSPLAQALKLEQLTRSFLLAESKPLHWPIFAAEVKQMQHLDIPFFTHLIDADALQLGGLEQELPGFIQTSGLAAAYERLRNLDTDEIAFQLRLIRGAVEARELHTTPESSPTLPPPATPEALMSSSAETSLEAAKRIAHRLLELAIRDSQGQVEWLGMDLGADGESFSFGPVGLSLYGGSIGIAHLLQRLQAQQVSLMDADAIQTAILQPLVGLVDQPSDDGRRRWWRDQPLGLSGCGGTLLALTLQGEQAMANSLLAAALPRFIEADQQLDLIGGCAGLIGSLVQLGTESALQLALRAGDHLIAQQNEEGAWSSSSSQPGLLGFSHGTAGYAAALAHLHAFSADERYRTAAAAALAYERARFNKDAGNWPDYRSIGRDSDSDEPSFMASWCHGAPGIALGRACLWGTALWDEECTKEIGIGLQTTAAVSSVSTDHLCCGSLGLMVLLEMLSAGPWPIDNQLRSHCQDVAFQYRLQALQRCSAEPIKLRCFGTKEGLLVLPGFFTGLSGMGLALLEDDPSRAVVSQLISAGLWPTESASGSGSGSAMSEEQLKAFIAKVQADTSLQEQLKAEGADVVAIAKAAGFTITTEDLNSHRQNLTDDELEGVAGG	–	one portion of the used peptide P2 was found showing triple dehydration with a m/z value of 1069.022
